Experimental data as given in patent US20190030123A1.

How the values were obtained:
[1] = target: HIS-tagged neonatal Fc receptor (FcRn, No. CT009-H08H from Sino Biological Inc) (UniProt P55899); experiment: BLI (Octet RED 96), His-FcRn on Ni-NTA biosensor, aflibercept as analyte, pH 6.0; sample (d) Eylea, stored 3 months at 5 C
[2] = target: HIS-tagged neonatal Fc receptor (FcRn, No. CT009-H08H from Sino Biological Inc) (UniProt P55899); experiment: BLI (Octet RED 96), His-FcRn on Ni-NTA biosensor, aflibercept as analyte, pH 6.0; sample (d) Eylea, starting material T0
[3] = target: HIS-tagged neonatal Fc receptor (FcRn, No. CT009-H08H from Sino Biological Inc) (UniProt P55899); experiment: BLI (Octet RED 96), His-FcRn on Ni-NTA biosensor, aflibercept as analyte, pH 6.0; formulation (a), starting material T0
[4] = target: HIS-tagged neonatal Fc receptor (FcRn, No. CT009-H08H from Sino Biological Inc) (UniProt P55899); experiment: BLI (Octet RED 96), His-FcRn on Ni-NTA biosensor, aflibercept as analyte, pH 6.0; formulation (b), starting material T0
[5] = target: HIS-tagged neonatal Fc receptor (FcRn, No. CT009-H08H from Sino Biological Inc) (UniProt P55899); experiment: BLI (Octet RED 96), His-FcRn on Ni-NTA biosensor, aflibercept as analyte, pH 6.0; formulation (c), stored 3 months at 5 C
[6] = target: HIS-tagged neonatal Fc receptor (FcRn, No. CT009-H08H from Sino Biological Inc) (UniProt P55899); experiment: BLI (Octet RED 96), His-FcRn on Ni-NTA biosensor, aflibercept as analyte, pH 6.0; formulation (a), stored 3 months at 5 C
[7] = target: HIS-tagged neonatal Fc receptor (FcRn, No. CT009-H08H from Sino Biological Inc) (UniProt P55899); experiment: BLI (Octet RED 96), His-FcRn on Ni-NTA biosensor, aflibercept as analyte, pH 6.0; formulation (b), stored 3 months at 40 C/75% relative humidity
[8] = target: HIS-tagged neonatal Fc receptor (FcRn, No. CT009-H08H from Sino Biological Inc) (UniProt P55899); experiment: BLI (Octet RED 96), His-FcRn on Ni-NTA biosensor, aflibercept as analyte, pH 6.0; formulation (c), stored 3 months at 40 C/75% relative humidity
[9] = target: HIS-tagged neonatal Fc receptor (FcRn, No. CT009-H08H from Sino Biological Inc) (UniProt P55899); experiment: BLI (Octet RED 96), His-FcRn on Ni-NTA biosensor, aflibercept as analyte, pH 6.0; formulation (b), stored 3 months at 5 C
[10] = target: HIS-tagged neonatal Fc receptor (FcRn, No. CT009-H08H from Sino Biological Inc) (UniProt P55899); experiment: BLI (Octet RED 96), His-FcRn on Ni-NTA biosensor, aflibercept as analyte, pH 6.0; formulation (c), starting material T0
[11] = target: HIS-tagged neonatal Fc receptor (FcRn, No. CT009-H08H from Sino Biological Inc) (UniProt P55899); experiment: BLI (Octet RED 96), His-FcRn on Ni-NTA biosensor, aflibercept as analyte, pH 6.0; sample (d) Eylea, stored 3 months at 40 C/75% relative humidity
[12] = target: HIS-tagged neonatal Fc receptor (FcRn, No. CT009-H08H from Sino Biological Inc) (UniProt P55899); experiment: BLI (Octet RED 96), His-FcRn on Ni-NTA biosensor, aflibercept as analyte, pH 6.0; formulation (a), stored 3 months at 40 C/75% relative humidity

Kd [1]: 0.0968 nM
koff [1]: 6.11e-05 s⁻¹
kon [1]: 631000 M⁻¹ s⁻¹
Kd [2]: 0.0993 nM
koff [2]: 5.56e-05 s⁻¹
kon [2]: 560000 M⁻¹ s⁻¹
Kd [3]: 0.118 nM
koff [3]: 6.56e-05 s⁻¹
kon [3]: 556000 M⁻¹ s⁻¹
koff [4]: 6.47e-05 s⁻¹
kon [4]: 613000 M⁻¹ s⁻¹
Kd [5]: 0.103 nM
koff [5]: 6.28e-05 s⁻¹
kon [5]: 610000 M⁻¹ s⁻¹
Kd [6]: 0.098 nM
koff [6]: 5.84e-05 s⁻¹
kon [6]: 596000 M⁻¹ s⁻¹
Kd [7]: 0.0591 nM
koff [7]: 2.86e-05 s⁻¹
kon [7]: 483000 M⁻¹ s⁻¹
Kd [8]: 0.0591 nM
koff [8]: 2.71e-05 s⁻¹
kon [8]: 459000 M⁻¹ s⁻¹
Kd [9]: 0.0923 nM
koff [9]: 5.71e-05 s⁻¹
kon [9]: 619000 M⁻¹ s⁻¹
Kd [10]: 0.107 nM
koff [10]: 6.44e-05 s⁻¹
kon [10]: 605000 M⁻¹ s⁻¹
Kd [11]: 0.0609 nM
koff [11]: 3e-05 s⁻¹
kon [11]: 493000 M⁻¹ s⁻¹
Kd [12]: 0.0905 nM
koff [12]: 4.11e-05 s⁻¹
kon [12]: 454000 M⁻¹ s⁻¹
Substance: aflibercept (from UniProt P17948 129-230; P35968 225-327) (Fc fusion)
